The results in this text go back to paper PMC10786891, “Massively parallel profiling of RNA-targeting CRISPR-Cas13d”.

Sequences and labels used below:
B1: target 3 C6G,A18G (mixed)
RNA 1: CACCCGUGCAAAAUUGCAGGGGUCUAAAACGACCUGAAUAUUUCAGAUCAAA
RNA 2: GGGAAUGGAUCCACAUCUACGAAUUCGUUUUUGGUCUGAAAUAUUGAGGUCUGCAGAUCGGAAGAGCACACGU
B2: target 3 G4A,C6U (mixed)
RNA 1: CACCCGUGCAAAAUUGCAGGGGUCUAAAACGACCUGAAUAUUUCAGAUCAAA
RNA 2: GGGAAUGGAUCCACAUCUACGAAUUCGUUUUUGAUCUGAAAUAUUUAAGUCUGCAGAUCGGAAGAGCACACGU
B3: target 3 insG 3' of 16,insU 3' of 3 (mixed)
RNA 1: CACCCGUGCAAAAUUGCAGGGGUCUAAAACGACCUGAAUAUUUCAGAUCAAA
RNA 2: GGGAAUGGAUCCACAUCUACGAAUUCGUUUUUGAUCGUGAAAUAUUCAGGUUCUGCAGAUCGGAAGAGCACACGU
B4: target 3 insG 3' of 8,insC 3' of 5 (mixed)
RNA 1: CACCCGUGCAAAAUUGCAGGGGUCUAAAACGACCUGAAUAUUUCAGAUCAAA
RNA 2: GGGAAUGGAUCCACAUCUACGAAUUCGUUUUUGAUCUGAAAUAUGUCACGGUCUGCAGAUCGGAAGAGCACACGU
B5: target 3 C6U,U8G (mixed)
RNA 1: CACCCGUGCAAAAUUGCAGGGGUCUAAAACGACCUGAAUAUUUCAGAUCAAA
RNA 2: GGGAAUGGAUCCACAUCUACGAAUUCGUUUUUGAUCUGAAAUAGUUAGGUCUGCAGAUCGGAAGAGCACACGU
B6: target 3 U2A,G4U (mixed)
RNA 1: CACCCGUGCAAAAUUGCAGGGGUCUAAAACGACCUGAAUAUUUCAGAUCAAA
RNA 2: GGGAAUGGAUCCACAUCUACGAAUUCGUUUUUGAUCUGAAAUAUUCAUGACUGCAGAUCGGAAGAGCACACGU
B7: target 3 insA 3' of 10,insU 3' of 3 (mixed)
RNA 1: CACCCGUGCAAAAUUGCAGGGGUCUAAAACGACCUGAAUAUUUCAGAUCAAA
RNA 2: GGGAAUGGAUCCACAUCUACGAAUUCGUUUUUGAUCUGAAAUAAUUCAGGUUCUGCAGAUCGGAAGAGCACACGU
B8: target 3 insC 3' of 8,insA 3' of 6 (mixed)
RNA 1: CACCCGUGCAAAAUUGCAGGGGUCUAAAACGACCUGAAUAUUUCAGAUCAAA
RNA 2: GGGAAUGGAUCCACAUCUACGAAUUCGUUUUUGAUCUGAAAUAUCUCAAGGUCUGCAGAUCGGAAGAGCACACGU
B9: target 3 C6U,U22A (mixed)
RNA 1: CACCCGUGCAAAAUUGCAGGGGUCUAAAACGACCUGAAUAUUUCAGAUCAAA
RNA 2: GGGAAUGGAUCCACAUCUACGAAUUCGUUAUUGAUCUGAAAUAUUUAGGUCUGCAGAUCGGAAGAGCACACGU
B10: target 3 insG 3' of 22,insA 3' of 2 (mixed)
RNA 1: CACCCGUGCAAAAUUGCAGGGGUCUAAAACGACCUGAAUAUUUCAGAUCAAA
RNA 2: GGGAAUGGAUCCACAUCUACGAAUUCGUUUGUUGAUCUGAAAUAUUCAGGUACUGCAGAUCGGAAGAGCACACGU
B11: target 3 U21A (mixed)
RNA 1: CACCCGUGCAAAAUUGCAGGGGUCUAAAACGACCUGAAUAUUUCAGAUCAAA
RNA 2: GGGAAUGGAUCCACAUCUACGAAUUCGUUUAUGAUCUGAAAUAUUCAGGUCUGCAGAUCGGAAGAGCACACGU
B12: target 3 insC 3' of 20,insA 3' of 6 (mixed)
RNA 1: CACCCGUGCAAAAUUGCAGGGGUCUAAAACGACCUGAAUAUUUCAGAUCAAA
RNA 2: GGGAAUGGAUCCACAUCUACGAAUUCGUUUUUCGAUCUGAAAUAUUCAAGGUCUGCAGAUCGGAAGAGCACACGU
B13: target 3 U2G,U10G (mixed)
RNA 1: CACCCGUGCAAAAUUGCAGGGGUCUAAAACGACCUGAAUAUUUCAGAUCAAA
RNA 2: GGGAAUGGAUCCACAUCUACGAAUUCGUUUUUGAUCUGAAAGAUUCAGGGCUGCAGAUCGGAAGAGCACACGU
B14: target 3 insC 3' of 4,insC 3' of 3 (mixed)
RNA 1: CACCCGUGCAAAAUUGCAGGGGUCUAAAACGACCUGAAUAUUUCAGAUCAAA
RNA 2: GGGAAUGGAUCCACAUCUACGAAUUCGUUUUUGAUCUGAAAUAUUCAGCGCUCUGCAGAUCGGAAGAGCACACGU
B15: target 3 C6U,U8C (mixed)
RNA 1: CACCCGUGCAAAAUUGCAGGGGUCUAAAACGACCUGAAUAUUUCAGAUCAAA
RNA 2: GGGAAUGGAUCCACAUCUACGAAUUCGUUUUUGAUCUGAAAUACUUAGGUCUGCAGAUCGGAAGAGCACACGU
B16: target 3 G3A,U22A (mixed)
RNA 1: CACCCGUGCAAAAUUGCAGGGGUCUAAAACGACCUGAAUAUUUCAGAUCAAA
RNA 2: GGGAAUGGAUCCACAUCUACGAAUUCGUUAUUGAUCUGAAAUAUUCAGAUCUGCAGAUCGGAAGAGCACACGU
B17: target 3 G3A (mixed)
RNA 1: CACCCGUGCAAAAUUGCAGGGGUCUAAAACGACCUGAAUAUUUCAGAUCAAA
RNA 2: GGGAAUGGAUCCACAUCUACGAAUUCGUUUUUGAUCUGAAAUAUUCAGAUCUGCAGAUCGGAAGAGCACACGU
B18: target 3 insU 3' of 14,insG 3' of 5 (mixed)
RNA 1: CACCCGUGCAAAAUUGCAGGGGUCUAAAACGACCUGAAUAUUUCAGAUCAAA
RNA 2: GGGAAUGGAUCCACAUCUACGAAUUCGUUUUUGAUCUGUAAAUAUUCAGGGUCUGCAGAUCGGAAGAGCACACGU
B19: target 3 insC 3' of 7 (mixed)
RNA 1: CACCCGUGCAAAAUUGCAGGGGUCUAAAACGACCUGAAUAUUUCAGAUCAAA
RNA 2: GGGAAUGGAUCCACAUCUACGAAUUCGUUUUUGAUCUGAAAUAUUCCAGGUCUGCAGAUCGGAAGAGCACACGU
B20: target 3 U2C,U7A (mixed)
RNA 1: CACCCGUGCAAAAUUGCAGGGGUCUAAAACGACCUGAAUAUUUCAGAUCAAA
RNA 2: GGGAAUGGAUCCACAUCUACGAAUUCGUUUUUGAUCUGAAAUAUACAGGCCUGCAGAUCGGAAGAGCACACGU
B21: target 3 G3A,G4U (mixed)
RNA 1: CACCCGUGCAAAAUUGCAGGGGUCUAAAACGACCUGAAUAUUUCAGAUCAAA
RNA 2: GGGAAUGGAUCCACAUCUACGAAUUCGUUUUUGAUCUGAAAUAUUCAUAUCUGCAGAUCGGAAGAGCACACGU
B22: target 3 insA 3' of 8,insG 3' of 6 (mixed)
RNA 1: CACCCGUGCAAAAUUGCAGGGGUCUAAAACGACCUGAAUAUUUCAGAUCAAA
RNA 2: GGGAAUGGAUCCACAUCUACGAAUUCGUUUUUGAUCUGAAAUAUAUCGAGGUCUGCAGAUCGGAAGAGCACACGU
B23: target 3 G3A,G4A (mixed)
RNA 1: CACCCGUGCAAAAUUGCAGGGGUCUAAAACGACCUGAAUAUUUCAGAUCAAA
RNA 2: GGGAAUGGAUCCACAUCUACGAAUUCGUUUUUGAUCUGAAAUAUUCAAAUCUGCAGAUCGGAAGAGCACACGU
B24: target 1 insG 3' of 16,insG 3' of 9 (mixed)
RNA 1: CACCCGUGCAAAAAUGCAGGGGUCUAAAACUGAGCGGAUAACCUCUCUAUGG
RNA 2: GGGAAUGGAUCCACAUCUACGAAUUCGUACCAUAGAGGAGGUUAGUCCGCUCACCGAGAUCGGAAGAGCACACGU
B25: target 1 C6A,A20C (mixed)
RNA 1: CACCCGUGCAAAAAUGCAGGGGUCUAAAACUGAGCGGAUAACCUCUCUAUGG
RNA 2: GGGAAUGGAUCCACAUCUACGAAUUCGUACCCUAGAGAGGUUAUCAGCUCACCGAGAUCGGAAGAGCACACGU
B26: target 1 U8C,A18U (mixed)
RNA 1: CACCCGUGCAAAAAUGCAGGGGUCUAAAACUGAGCGGAUAACCUCUCUAUGG
RNA 2: GGGAAUGGAUCCACAUCUACGAAUUCGUACCAUUGAGAGGUUACCCGCUCACCGAGAUCGGAAGAGCACACGU
B27: target 1 C2A,A14G (mixed)
RNA 1: CACCCGUGCAAAAAUGCAGGGGUCUAAAACUGAGCGGAUAACCUCUCUAUGG
RNA 2: GGGAAUGGAUCCACAUCUACGAAUUCGUACCAUAGAGGGGUUAUCCGCUAACCGAGAUCGGAAGAGCACACGU

The data set addresses T1, EsCas13d, nuclease-dead (Eubacterium siraeum, UniProt B0MS50, R295A;H300A;R849A;H854A).
T1 sequence: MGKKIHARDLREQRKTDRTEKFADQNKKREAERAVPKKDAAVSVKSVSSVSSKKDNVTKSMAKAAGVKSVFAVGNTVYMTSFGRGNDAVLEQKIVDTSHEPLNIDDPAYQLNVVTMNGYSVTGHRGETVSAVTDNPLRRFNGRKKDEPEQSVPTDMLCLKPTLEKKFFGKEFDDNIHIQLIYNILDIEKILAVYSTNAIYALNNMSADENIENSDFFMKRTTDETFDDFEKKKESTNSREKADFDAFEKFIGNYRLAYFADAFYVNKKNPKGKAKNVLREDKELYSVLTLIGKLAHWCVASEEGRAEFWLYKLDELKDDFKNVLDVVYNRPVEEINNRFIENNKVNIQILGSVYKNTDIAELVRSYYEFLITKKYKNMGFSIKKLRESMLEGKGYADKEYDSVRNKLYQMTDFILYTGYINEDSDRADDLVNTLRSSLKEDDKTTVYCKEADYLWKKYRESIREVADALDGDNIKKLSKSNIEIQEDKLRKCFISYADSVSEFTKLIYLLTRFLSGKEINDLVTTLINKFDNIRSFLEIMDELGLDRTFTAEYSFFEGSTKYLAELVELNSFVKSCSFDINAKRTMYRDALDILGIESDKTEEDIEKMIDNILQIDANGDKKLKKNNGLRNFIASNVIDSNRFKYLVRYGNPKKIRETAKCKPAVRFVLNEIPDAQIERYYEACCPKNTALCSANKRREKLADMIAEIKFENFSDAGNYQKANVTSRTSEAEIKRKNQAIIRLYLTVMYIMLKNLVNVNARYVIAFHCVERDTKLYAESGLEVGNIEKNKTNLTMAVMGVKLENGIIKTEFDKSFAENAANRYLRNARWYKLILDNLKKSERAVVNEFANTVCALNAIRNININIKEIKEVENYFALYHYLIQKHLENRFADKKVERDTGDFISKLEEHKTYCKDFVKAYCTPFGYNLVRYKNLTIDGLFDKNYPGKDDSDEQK
Kind of data set: crRNA (strand 1, pre-loaded); Mg2+; 40 mM Tris-HCl pH 7.5, 150 mM NaCl, 6 mM MgCl2, 1 mM DTT, 0.1% Tween-20, 0.2 mg/ml BSA; 25 C; 10 min per concentration, then washed. The settings on record: tags: His6-TwinStrep-SUMO cleaved; N-terminal SNAP kept (SNAP-Surface 488); label: 3' end held by stalled T7 RNA polymerase.
Take B1: the Kd (in general, a measure of binding affinity in units of concentration) was determined as 47 ± 9.5 nM.

In turn, B2 gave a Kd of 15.7 ± 1.25 nM.

Molecule B3 came in with a Kd of roughly 71 nM.

On to B4, for which the affinity, expressed as Kd, was 39 ± 4 nM.

Molecule B5 displayed a Kd of 44.1 ± 3.35 nM.

B6 came in with a Kd of 1.98 ± 0.2 nM.

As for B7, the Kd was found to be 67.5 ± 17.5 nM.

B8 showed a dissociation constant Kd of 71 ± 10.5 nM.

Consider B9, for which binding was characterised by a dissociation constant (Kd) of 13.3 ± 1.4 nM.

B10 had a Kd of 72 ± 21 nM.

On to B11, for which the dissociation constant (Kd) is 35.5 ± 4 nM.

Molecule B12 registered a Kd of 105 ± 43.5 nM.

As for B13, the Kd was roughly 105 nM.

The molecule B14 registered a Kd of 22.9 ± 2.65 nM.

Molecule B15 had a Kd of 33.5 ± 2.95 nM.

As to B16, the Kd is 47 ± 10.5 nM.

The molecule B17 came in with a Kd of 46 ± 11.5 nM.

As for B18, binding was characterised by a dissociation constant (Kd) of 60.5 ± 19.5 nM.

For B19, the Kd was 90.5 ± 20.5 nM.

The molecule B20 yielded a Kd of 77 ± 23 nM.

B21 had a Kd of 8.95 ± 0.95 nM.

B22 registered a Kd of 45.5 ± 4.5 nM.

Molecule B23 yielded a Kd of 8.7 ± 0.75 nM.

For B24, binding was put at a Kd of 31 ± 4 nM.

On to B25, for which the Kd was determined as 38 ± 4 nM.

The molecule B26 gave a Kd of 43 ± 4 nM.

As to B27, the Kd came to 13.5 ± 0.5 nM.
